Laboratory results reported in US20260184748A1 (University of Pennsylvania, published 2026).
Where no end group is shown, it is not given here.

Columns and labels:
Experiment in all cases: cell-based or functional assay
MC5R = MC5R (UniProt P33032 1-325)
MCHR1 = MCHR1 (UniProt Q99705 1-353)
MRGPRX2 = biological target: T1, MRGPRX2 (UniProt Q96LB1 1-330)
T1 sequence (looked up): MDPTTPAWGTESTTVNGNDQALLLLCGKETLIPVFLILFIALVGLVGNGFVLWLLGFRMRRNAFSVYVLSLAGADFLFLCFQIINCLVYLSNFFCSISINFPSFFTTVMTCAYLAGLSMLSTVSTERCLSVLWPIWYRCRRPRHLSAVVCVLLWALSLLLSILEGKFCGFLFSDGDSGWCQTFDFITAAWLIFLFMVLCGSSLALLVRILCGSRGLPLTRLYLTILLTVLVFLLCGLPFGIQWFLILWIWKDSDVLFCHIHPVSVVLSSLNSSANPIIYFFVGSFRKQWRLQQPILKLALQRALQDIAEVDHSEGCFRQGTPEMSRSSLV

NMBR = NMBR (UniProt P28336 1-390)
Sequence of NMBR (P28336 whole entry): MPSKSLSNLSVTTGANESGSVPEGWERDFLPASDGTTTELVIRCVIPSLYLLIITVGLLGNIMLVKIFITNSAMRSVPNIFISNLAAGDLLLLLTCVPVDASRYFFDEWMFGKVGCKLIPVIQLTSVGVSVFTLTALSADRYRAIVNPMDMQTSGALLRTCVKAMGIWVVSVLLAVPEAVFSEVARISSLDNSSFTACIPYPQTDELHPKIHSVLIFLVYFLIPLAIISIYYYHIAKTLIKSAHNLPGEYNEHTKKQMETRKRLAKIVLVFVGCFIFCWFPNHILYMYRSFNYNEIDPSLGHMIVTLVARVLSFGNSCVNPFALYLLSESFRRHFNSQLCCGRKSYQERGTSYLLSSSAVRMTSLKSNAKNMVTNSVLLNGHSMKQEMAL

AVPR1A = AVPR1A (UniProt P37288 1-418)
Sequence of AVPR1A (P37288 whole entry): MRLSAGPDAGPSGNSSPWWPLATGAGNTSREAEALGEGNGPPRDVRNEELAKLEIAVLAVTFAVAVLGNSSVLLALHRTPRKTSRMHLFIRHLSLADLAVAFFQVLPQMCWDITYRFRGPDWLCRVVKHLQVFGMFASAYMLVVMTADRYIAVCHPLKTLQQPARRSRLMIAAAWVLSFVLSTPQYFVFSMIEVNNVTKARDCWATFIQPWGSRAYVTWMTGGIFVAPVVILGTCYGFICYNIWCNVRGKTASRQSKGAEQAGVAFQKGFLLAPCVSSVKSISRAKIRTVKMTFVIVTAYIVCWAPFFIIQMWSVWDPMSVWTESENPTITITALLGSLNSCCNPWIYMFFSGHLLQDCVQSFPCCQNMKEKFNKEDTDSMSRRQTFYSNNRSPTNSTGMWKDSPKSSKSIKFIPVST

P2RY4 = P2RY4 (UniProt P51582 1-365)
Sequence of P2RY4 (P51582 whole entry): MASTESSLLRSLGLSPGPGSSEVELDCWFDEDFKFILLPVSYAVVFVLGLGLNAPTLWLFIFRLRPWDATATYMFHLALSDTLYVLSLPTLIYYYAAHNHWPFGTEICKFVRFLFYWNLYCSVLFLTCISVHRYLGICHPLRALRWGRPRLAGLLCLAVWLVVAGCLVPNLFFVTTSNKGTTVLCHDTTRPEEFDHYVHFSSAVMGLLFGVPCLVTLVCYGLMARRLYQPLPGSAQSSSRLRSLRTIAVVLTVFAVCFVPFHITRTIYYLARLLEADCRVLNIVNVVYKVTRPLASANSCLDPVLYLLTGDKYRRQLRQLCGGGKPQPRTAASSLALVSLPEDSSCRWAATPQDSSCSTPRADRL

PTGIR = PTGIR (UniProt P43119 1-386, limits assumed)
Sequence of PTGIR (P43119 whole entry): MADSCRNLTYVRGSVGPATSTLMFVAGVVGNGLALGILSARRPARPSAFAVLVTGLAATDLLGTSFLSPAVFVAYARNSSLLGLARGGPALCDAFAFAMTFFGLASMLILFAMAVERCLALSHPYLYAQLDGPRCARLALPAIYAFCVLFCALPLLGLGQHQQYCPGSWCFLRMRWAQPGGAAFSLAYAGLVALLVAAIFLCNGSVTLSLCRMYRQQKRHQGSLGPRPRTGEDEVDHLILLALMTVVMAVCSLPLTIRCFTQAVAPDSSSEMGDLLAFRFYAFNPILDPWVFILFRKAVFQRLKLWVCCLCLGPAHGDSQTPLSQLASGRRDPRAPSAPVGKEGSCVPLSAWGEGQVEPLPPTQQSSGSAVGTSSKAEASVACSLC

BDKRB1 = biological target: T2, BDKRB1 (UniProt P46663 1-353)
T2 sequence (looked up): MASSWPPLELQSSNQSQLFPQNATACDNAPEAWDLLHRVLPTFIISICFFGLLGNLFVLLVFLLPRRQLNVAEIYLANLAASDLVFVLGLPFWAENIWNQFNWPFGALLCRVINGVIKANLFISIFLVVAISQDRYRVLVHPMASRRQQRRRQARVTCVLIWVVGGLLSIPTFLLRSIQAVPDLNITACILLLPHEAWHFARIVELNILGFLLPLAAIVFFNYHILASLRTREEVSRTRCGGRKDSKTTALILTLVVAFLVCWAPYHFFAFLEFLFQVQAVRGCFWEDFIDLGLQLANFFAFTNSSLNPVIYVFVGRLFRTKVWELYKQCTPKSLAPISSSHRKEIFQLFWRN

CHRM1 = biological target: T3, CHRM1 (UniProt P11229 1-460)
T3 sequence (looked up): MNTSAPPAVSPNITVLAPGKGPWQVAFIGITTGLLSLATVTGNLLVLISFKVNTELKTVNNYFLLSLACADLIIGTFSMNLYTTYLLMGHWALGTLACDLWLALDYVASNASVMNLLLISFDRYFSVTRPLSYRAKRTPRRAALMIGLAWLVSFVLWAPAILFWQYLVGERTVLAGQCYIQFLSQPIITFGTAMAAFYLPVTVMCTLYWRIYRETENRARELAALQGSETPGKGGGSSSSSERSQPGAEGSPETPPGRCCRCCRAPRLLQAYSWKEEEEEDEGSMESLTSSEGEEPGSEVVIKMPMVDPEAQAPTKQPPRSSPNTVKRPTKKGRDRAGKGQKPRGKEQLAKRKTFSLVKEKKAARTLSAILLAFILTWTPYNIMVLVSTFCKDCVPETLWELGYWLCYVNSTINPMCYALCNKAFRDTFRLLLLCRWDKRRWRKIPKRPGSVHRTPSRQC

CXCR2 = biological target: T4, CXCR2 (UniProt P25025 1-360)
T4 sequence (looked up): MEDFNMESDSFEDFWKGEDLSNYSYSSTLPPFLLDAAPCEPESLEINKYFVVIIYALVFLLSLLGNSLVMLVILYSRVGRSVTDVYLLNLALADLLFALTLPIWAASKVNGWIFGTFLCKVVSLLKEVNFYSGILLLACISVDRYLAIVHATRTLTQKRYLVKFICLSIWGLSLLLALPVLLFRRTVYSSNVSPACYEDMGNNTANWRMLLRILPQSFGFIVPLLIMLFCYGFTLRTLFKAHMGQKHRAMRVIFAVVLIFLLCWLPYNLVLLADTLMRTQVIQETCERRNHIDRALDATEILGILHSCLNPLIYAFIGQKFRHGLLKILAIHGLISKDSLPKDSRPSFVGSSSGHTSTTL

CXCR4 = CXCR4 (UniProt P61073 1-352)
Sequence of CXCR4 (P61073 whole entry): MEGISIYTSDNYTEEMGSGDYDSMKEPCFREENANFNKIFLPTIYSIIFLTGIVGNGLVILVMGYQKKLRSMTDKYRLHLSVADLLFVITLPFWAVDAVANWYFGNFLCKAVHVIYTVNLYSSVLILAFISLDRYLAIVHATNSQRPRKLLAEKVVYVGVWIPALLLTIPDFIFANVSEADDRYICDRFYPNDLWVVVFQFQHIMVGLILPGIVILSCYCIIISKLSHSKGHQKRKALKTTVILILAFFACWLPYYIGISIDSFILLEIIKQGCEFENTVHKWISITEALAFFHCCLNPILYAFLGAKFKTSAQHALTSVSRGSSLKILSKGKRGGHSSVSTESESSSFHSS

CXCR6 = CXCR6 (UniProt O00574 1-342)
Sequence of CXCR6 (O00574 whole entry): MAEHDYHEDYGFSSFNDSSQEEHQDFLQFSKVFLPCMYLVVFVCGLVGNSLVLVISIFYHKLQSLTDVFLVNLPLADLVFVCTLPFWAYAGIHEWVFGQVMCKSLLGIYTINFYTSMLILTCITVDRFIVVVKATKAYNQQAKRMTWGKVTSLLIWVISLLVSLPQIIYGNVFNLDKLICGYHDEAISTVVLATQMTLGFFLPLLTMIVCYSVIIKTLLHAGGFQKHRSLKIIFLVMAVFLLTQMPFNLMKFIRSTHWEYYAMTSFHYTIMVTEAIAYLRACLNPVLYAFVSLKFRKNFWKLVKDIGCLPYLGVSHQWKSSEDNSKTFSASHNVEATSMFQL

EDG4 = EDG4 (UniProt Q9HBW0 1-348)
Sequence of EDG4 (Q9HBW0 whole entry): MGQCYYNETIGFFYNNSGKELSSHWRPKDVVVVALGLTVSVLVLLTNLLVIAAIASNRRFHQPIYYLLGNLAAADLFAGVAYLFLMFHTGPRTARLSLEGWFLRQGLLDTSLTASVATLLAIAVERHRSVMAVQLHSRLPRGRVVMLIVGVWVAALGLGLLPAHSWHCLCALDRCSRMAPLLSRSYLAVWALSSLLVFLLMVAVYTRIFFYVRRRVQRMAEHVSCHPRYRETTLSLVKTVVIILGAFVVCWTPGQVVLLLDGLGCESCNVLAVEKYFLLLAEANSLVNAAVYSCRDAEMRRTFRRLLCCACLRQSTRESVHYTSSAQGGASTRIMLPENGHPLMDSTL

F2RL3 = biological target: T5, F2RL3 (UniProt Q96RI0 18-385, limits assumed)
T5 sequence (looked up): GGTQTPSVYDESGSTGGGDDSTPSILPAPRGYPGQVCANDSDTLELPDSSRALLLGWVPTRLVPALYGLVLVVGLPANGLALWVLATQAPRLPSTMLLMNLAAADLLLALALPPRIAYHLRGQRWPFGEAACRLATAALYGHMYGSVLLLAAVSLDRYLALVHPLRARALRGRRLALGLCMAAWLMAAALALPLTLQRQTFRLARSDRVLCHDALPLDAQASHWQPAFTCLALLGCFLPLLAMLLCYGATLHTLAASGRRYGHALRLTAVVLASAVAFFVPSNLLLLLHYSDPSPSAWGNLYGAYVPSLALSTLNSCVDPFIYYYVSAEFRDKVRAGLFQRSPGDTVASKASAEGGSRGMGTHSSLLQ

HRH1 = HRH1 (UniProt P35367 1-487)
Sequence of HRH1 (P35367 whole entry): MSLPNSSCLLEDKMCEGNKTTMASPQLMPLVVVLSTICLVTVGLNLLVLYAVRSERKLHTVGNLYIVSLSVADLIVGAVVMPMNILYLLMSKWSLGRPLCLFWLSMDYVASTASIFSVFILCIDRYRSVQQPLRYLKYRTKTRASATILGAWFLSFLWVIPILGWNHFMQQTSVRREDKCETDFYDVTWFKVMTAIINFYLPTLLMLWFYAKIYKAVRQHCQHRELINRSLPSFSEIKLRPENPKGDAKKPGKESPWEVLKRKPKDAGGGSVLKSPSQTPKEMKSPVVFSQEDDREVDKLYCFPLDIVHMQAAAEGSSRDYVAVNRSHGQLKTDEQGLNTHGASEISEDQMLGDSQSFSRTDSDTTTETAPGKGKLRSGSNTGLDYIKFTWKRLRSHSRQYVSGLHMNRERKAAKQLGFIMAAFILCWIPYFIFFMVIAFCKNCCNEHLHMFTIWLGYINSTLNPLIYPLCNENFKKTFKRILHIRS

Sequence of MCHR1 (Q99705 whole entry): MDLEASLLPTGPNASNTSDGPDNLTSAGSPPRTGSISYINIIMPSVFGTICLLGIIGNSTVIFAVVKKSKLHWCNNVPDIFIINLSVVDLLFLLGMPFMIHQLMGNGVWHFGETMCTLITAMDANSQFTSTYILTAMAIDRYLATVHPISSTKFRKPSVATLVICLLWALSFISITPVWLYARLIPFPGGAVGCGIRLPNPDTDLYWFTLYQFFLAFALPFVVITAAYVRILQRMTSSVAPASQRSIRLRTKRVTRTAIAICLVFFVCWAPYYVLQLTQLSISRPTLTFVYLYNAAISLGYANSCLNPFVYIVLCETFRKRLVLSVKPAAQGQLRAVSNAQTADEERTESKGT
Sequence of MC5R (P33032 whole entry): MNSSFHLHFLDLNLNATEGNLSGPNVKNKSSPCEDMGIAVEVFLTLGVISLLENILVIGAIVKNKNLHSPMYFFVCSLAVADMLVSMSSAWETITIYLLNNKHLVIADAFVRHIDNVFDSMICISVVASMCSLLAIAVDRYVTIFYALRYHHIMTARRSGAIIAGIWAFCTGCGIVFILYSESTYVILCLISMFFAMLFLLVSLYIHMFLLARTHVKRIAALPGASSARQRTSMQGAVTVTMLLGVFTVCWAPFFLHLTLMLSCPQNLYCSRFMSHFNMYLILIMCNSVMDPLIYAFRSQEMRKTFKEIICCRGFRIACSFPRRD

Binder: QATVGDVNTDRPGLLDLK (also: synthesised on Rink amide resin, C-terminal amide not given here outright) [octadecaneuropeptide (ODN)]
- % Activity, arrestin, antagonist mode, 2.5 uM (MC5R): 5.9%
- % Activity, arrestin, antagonist mode, 2.5 uM (MCHR1): 5.1%
- % Activity, arrestin, antagonist mode, 2.5 uM (MRGPRX2): -23.5%
- % Activity, arrestin, antagonist mode, 2.5 uM (NMBR): -7.7%
- % Activity, arrestin, antagonist mode, 2.5 uM (AVPR1A): -2.4%
- % Activity, arrestin, antagonist mode, 2.5 uM (P2RY4): 12.9%
- % Activity, arrestin, antagonist mode, 2.5 uM (PTGIR): -20%
- % Activity, arrestin, antagonist mode, 2.5 uM (BDKRB1): -5.7%
- % Activity, arrestin, antagonist mode, 2.5 uM (CHRM1): 9.3%
- % Activity, arrestin, antagonist mode, 2.5 uM (CXCR2): -9.8%
- % Activity, arrestin, antagonist mode, 2.5 uM (CXCR4): -28.5%
- % Activity, arrestin, antagonist mode, 2.5 uM (CXCR6): -1.3%
- % Activity, arrestin, antagonist mode, 2.5 uM (EDG4): 4.6%
- % Activity, arrestin, antagonist mode, 2.5 uM (F2RL3): -25.9%
- % Activity, arrestin, antagonist mode, 2.5 uM (HRH1): -38.5%
